# Reference: the Immune Epitope Database (IEDB)
# pKd: −log10 of the molar value.
# How the values were obtained:
# HLA-A*03:01 [1] = assay: IEDB peptide-MHC binding, purified MHC/competitive/fluorescence; filed as Kd, often an IC50 or EC50 that approximates it; ≥ and ≤ were set here for values at or beyond the usual limits of such assays
# HLA-B*15:42 = assay: as above; conditions: source organism: Salmonella enterica subsp. enterica serovar Typhi
# HLA-B*45:06 = assay: as above; conditions: source organism: Salmonella enterica subsp. enterica serovar Typhi
# HLA-B*83:01 = assay: as above; conditions: source organism: Salmonella enterica subsp. enterica serovar Typhi
# HLA-A*02:12 = assay: IEDB peptide-MHC binding, purified MHC/direct/fluorescence; filed as Kd, often an IC50 or EC50 that approximates it; ≥ and ≤ were set here for values at or beyond the usual limits of such assays
# HLA-A*68:02 = assay: as above
# HLA-A*11:01 = assay: as above
# HLA-A*02:19 = assay: as above
# HLA-A*02:03 = assay: as above
# HLA-B*27:03 = assay: IEDB peptide-MHC binding, purified MHC/competitive/fluorescence; filed as Kd, often an IC50 or EC50 that approximates it; ≥ and ≤ were set here for values at or beyond the usual limits of such assays
# HLA-B*57:01 [2] = assay: as above
# HLA-A*69:01 [3] = assay: as above
# HLA-A*26:01 = assay: as above
# HLA-B*51:01 = assay: as above
# HLA-B*18:01 [4] = assay: as above
# HLA-A*02:01 [5] = assay: as above
# HLA-B*39:01 [6] = assay: as above
# HLA-B*46:01 [7] = assay: as above
# HLA-B*57:01 [8] = assay: IEDB peptide-MHC binding, purified MHC/direct/fluorescence; filed as Kd, often an IC50 or EC50 that approximates it; ≥ and ≤ were set here for values at or beyond the usual limits of such assays; conditions: source organism: Mammarenavirus juninense
# HLA-A*69:01 [9] = assay: as above; conditions: source organism: Mammarenavirus juninense
# HLA-B*44:02 = assay: as above
# HLA-A*01:01 = assay: as above
# HLA-B*15:01 [10] = assay: as above; conditions: source organism: Mammarenavirus juninense
# HLA-B*27:05 = assay: as above
# HLA-B*07:02 = assay: as above
# HLA-B*18:01 [11] = assay: as above; conditions: source organism: Mammarenavirus juninense
# HLA-A*02:01 [12] = assay: as above; conditions: source organism: Mammarenavirus juninense
# HLA-A*03:01 [13] = assay: as above
# HLA-B*39:01 [14] = assay: as above
# HLA-B*58:01 = assay: as above; conditions: source organism: Mammarenavirus juninense
# HLA-A*31:01 = assay: as above; conditions: source organism: Mammarenavirus juninense
# HLA-A*29:02 = assay: as above
# HLA-B*46:01 [15] = assay: as above
# HLA-B*40:01 = assay: as above
# HLA-A*24:03 = assay: as above
# HLA-A*02:16 = assay: as above
# HLA-A*02:11 = assay: as above; conditions: source organism: Zaire ebolavirus
# HLA-B*15:17 = assay: IEDB peptide-MHC binding, purified MHC/competitive/fluorescence; filed as Kd, often an IC50 or EC50 that approximates it; ≥ and ≤ were set here for values at or beyond the usual limits of such assays
# HLA-B*15:01 [16] = assay: as above
# [17] = source organism: Cryptosporidium parvum Iowa II
# [18] = source organism: Mammarenavirus juninense
# [19] = source organism: Zaire ebolavirus
# [20] = source organism: Coxiella burnetii
# [21] = source organism: Mammarenavirus lassaense
# [22] = source organism: Mycobacterium tuberculosis variant bovis BCG str. Pasteur 1173P2
# [23] = source organism: Araucaria virus
# [24] = source organism: Hantavirus HPR/02-73
sequence,measurement,setting,value
FMLSVHYRK,pKd,HLA-A*03:01 [1]; source organism: Listeria monocytogenes HCC23,6.44
FTFKVNSVK,pKd,HLA-B*15:42,≤ 5.30
same,pKd,HLA-A*03:01 [1]; source organism: Salmonella enterica subsp. enterica serovar Typhi,6.82
same,pKd,HLA-B*45:06,≤ 5.30
same,pKd,HLA-B*83:01,≤ 5.30
GFPFFIMPK,pKd,HLA-A*02:12; [17],≤ 4.70
same,pKd,HLA-A*68:02; [17],≤ 4.70
same,pKd,HLA-A*11:01; [17],7.11
same,pKd,HLA-A*02:19; [17],≤ 4.70
same,pKd,HLA-A*02:03; [17],≤ 4.70
same,pKd,HLA-B*27:03; [17],≤ 4.70
same,pKd,HLA-B*57:01 [2]; [17],≤ 4.70
same,pKd,HLA-A*69:01 [3]; [17],≤ 4.70
same,pKd,HLA-A*26:01; [17],≤ 4.70
same,pKd,HLA-B*51:01; [17],≤ 4.70
same,pKd,HLA-B*18:01 [4]; [17],≤ 4.70
same,pKd,HLA-A*02:01 [5]; [17],≤ 4.70
same,pKd,HLA-B*39:01 [6]; [17],≤ 4.70
same,pKd,HLA-B*46:01 [7]; [17],≤ 4.70
GKLDPTNTL,pKd,HLA-B*57:01 [8],≤ 4.70
same,pKd,HLA-A*69:01 [9],≤ 4.70
same,pKd,HLA-B*44:02; [18],≤ 4.70
same,pKd,HLA-A*01:01; [18],≤ 4.70
same,pKd,HLA-B*15:01 [10],≤ 4.70
same,pKd,HLA-B*27:05; [18],≤ 4.70
same,pKd,HLA-B*07:02; [18],≤ 4.70
same,pKd,HLA-B*18:01 [11],≤ 4.70
same,pKd,HLA-A*02:01 [12],≤ 4.70
same,pKd,HLA-A*03:01 [13]; [18],≤ 4.70
same,pKd,HLA-B*39:01 [14]; [18],5.52
same,pKd,HLA-B*58:01,≤ 4.70
same,pKd,HLA-A*31:01,≤ 4.70
same,pKd,HLA-A*29:02; [18],≤ 4.70
same,pKd,HLA-B*46:01 [15]; [18],≤ 4.70
same,pKd,HLA-B*40:01; [18],≤ 4.70
HISWQGPGK,pKd,HLA-A*03:01 [1]; source organism: Vibrio atlanticus LGP32,6.66
IFLKPDETF,pKd,HLA-A*24:03; source organism: Sudan ebolavirus - Maleo (1979),7.44
same,pKd,HLA-A*02:12; [19],≤ 4.70
same,pKd,HLA-A*68:02; [19],≤ 4.70
same,pKd,HLA-A*02:16; [19],≤ 4.70
same,pKd,HLA-A*03:01 [13]; [19],≤ 4.70
same,pKd,HLA-A*02:19; [19],≤ 4.70
same,pKd,HLA-A*02:11,≤ 4.70
same,pKd,HLA-A*02:03; [19],≤ 4.70
same,pKd,HLA-B*27:03; [19],≤ 4.70
same,pKd,HLA-B*57:01 [2]; [19],≤ 4.70
same,pKd,HLA-A*69:01 [3]; [19],≤ 4.70
same,pKd,HLA-A*26:01; [19],≤ 4.70
same,pKd,HLA-B*15:17; [19],≤ 4.70
same,pKd,HLA-B*15:01 [16]; [19],≤ 4.70
same,pKd,HLA-B*51:01; [19],≤ 4.70
same,pKd,HLA-B*18:01 [4]; [19],≤ 4.70
same,pKd,HLA-A*02:01 [5]; [19],≤ 4.70
same,pKd,HLA-B*39:01 [6]; [19],≤ 4.70
same,pKd,HLA-B*46:01 [7]; [19],≤ 4.70
KFFMVHSLK,pKd,HLA-A*24:03; [20],≤ 4.70
same,pKd,HLA-A*02:12; [20],≤ 4.70
same,pKd,HLA-A*68:02; [20],≤ 4.70
same,pKd,HLA-A*02:16; [20],≤ 4.70
same,pKd,HLA-A*11:01; [20],6.22
same,pKd,HLA-A*02:19; [20],≤ 4.70
same,pKd,HLA-A*02:03; [20],≤ 4.70
same,pKd,HLA-B*27:03; [20],≤ 4.70
same,pKd,HLA-B*57:01 [2]; [20],≤ 4.70
same,pKd,HLA-A*69:01 [3]; [20],≤ 4.70
same,pKd,HLA-A*26:01; [20],≤ 4.70
same,pKd,HLA-B*15:17; [20],≤ 4.70
same,pKd,HLA-B*51:01; [20],≤ 4.70
same,pKd,HLA-B*18:01 [4]; [20],≤ 4.70
same,pKd,HLA-A*02:01 [5]; [20],≤ 4.70
same,pKd,HLA-B*39:01 [6]; [20],≤ 4.70
same,pKd,HLA-B*46:01 [7]; [20],≤ 4.70
KREEHYIVL,pKd,HLA-B*44:02; [21],≤ 4.70
same,pKd,HLA-B*27:05; [21],≤ 4.70
same,pKd,HLA-B*07:02; [21],≤ 4.70
same,pKd,HLA-A*03:01 [13]; [21],≤ 4.70
same,pKd,HLA-B*39:01 [14]; [21],7.00
same,pKd,HLA-B*46:01 [15]; [21],≤ 4.70
MTSGSSSGF,pKd,HLA-A*01:01; source organism: Mycobacterium tuberculosis,≤ 5.30
same,pKd,HLA-A*29:02; source organism: Mycobacterium tuberculosis H37Rv,7.29
QETWTRLVL,pKd,HLA-B*39:01 [14]; [22],6.97
same,pKd,HLA-B*40:01; [22],7.41
RLLHRTTRH,pKd,HLA-A*03:01 [1]; source organism: Burkholderia vietnamiensis G4,7.92
SQVRVPTVF,pKd,HLA-A*24:03; source organism: Sudan ebolavirus - Uganda (2000),≤ 4.70
same,pKd,HLA-A*02:12; [19],≤ 4.70
same,pKd,HLA-A*68:02; [19],≤ 4.70
same,pKd,HLA-A*02:16; [19],≤ 4.70
same,pKd,HLA-A*03:01 [13]; [19],≤ 4.70
same,pKd,HLA-A*29:02; [19],≤ 4.70
same,pKd,HLA-A*02:19; [19],≤ 4.70
same,pKd,HLA-A*02:11,≤ 4.70
same,pKd,HLA-A*02:03; [19],≤ 4.70
same,pKd,HLA-B*27:03; [19],≤ 4.70
same,pKd,HLA-B*57:01 [2]; [19],≤ 4.70
same,pKd,HLA-A*69:01 [3]; [19],≤ 4.70
same,pKd,HLA-A*26:01; [19],≤ 4.70
same,pKd,HLA-B*15:17; [19],≤ 4.70
same,pKd,HLA-B*51:01; [19],≤ 4.70
same,pKd,HLA-A*02:01 [5]; [19],≤ 4.70
same,pKd,HLA-B*39:01 [6]; [19],≤ 4.70
same,pKd,HLA-B*46:01 [7]; [19],≤ 4.70
VIWAASGFY,pKd,HLA-A*03:01 [1]; source organism: Yersinia pestis Nepal516,7.02
WKAIGAYIL,pKd,HLA-A*24:03; [23],≤ 4.70
same,pKd,HLA-A*02:12; [23],≤ 4.70
same,pKd,HLA-A*68:02; [23],≤ 4.70
same,pKd,HLA-A*03:01 [13]; [23],≤ 4.70
same,pKd,HLA-B*39:01 [14]; source organism: Juquitiba virus,7.57
same,pKd,HLA-A*29:02; [23],≤ 4.70
same,pKd,HLA-A*02:19; [23],≤ 4.70
same,pKd,HLA-A*02:03; [23],≤ 4.70
same,pKd,HLA-B*27:03; [24],≤ 4.70
same,pKd,HLA-B*57:01 [2]; [24],≤ 4.70
same,pKd,HLA-A*69:01 [3]; [24],≤ 4.70
same,pKd,HLA-A*26:01; [24],≤ 4.70
same,pKd,HLA-B*15:17; [24],≤ 4.70
same,pKd,HLA-B*15:01 [16]; [24],≤ 4.70
same,pKd,HLA-B*51:01; [24],≤ 4.70
same,pKd,HLA-B*18:01 [4]; [24],≤ 4.70
same,pKd,HLA-B*46:01 [7]; [24],≤ 4.70
